Measured values: paper PMC5383425, “Differential CLE peptide perception by plant receptors implicated from structural and functional analyses of TDIF-TDR interactions” (PLoS ONE, 2017)
Numbering of substitutions follows the chain as printed. Square brackets hold non-standard residues; d marks the D form. Ends that are not written are not given here. Hyp = O=C(O)[C@@H]1C[C@@H](O)CN1

Tests used:
Test in all cases: ITC; 0.5–1 mM peptide titrated into 10–40 μM ecdTDR; 25°C; 10 mM sodium citrate, 100 mM NaCl, pH 5.5; fitted to one set of binding sites; MicroCal Auto-iTC200
Conditions in all cases: both partners purified
[1] = target: T1, ecdTDR F161A mutant (Arabidopsis thaliana, UniProt Q9FII5 30-642, F161A)
T1 construct: TDR/PXY of A. thaliana, extracellular domain, residues 30-642; source: High Five insect cells (baculovirus), secreted, purified as the wild type (Ni-NTA, size-exclusion chromatography)
T1 sequence (looked up): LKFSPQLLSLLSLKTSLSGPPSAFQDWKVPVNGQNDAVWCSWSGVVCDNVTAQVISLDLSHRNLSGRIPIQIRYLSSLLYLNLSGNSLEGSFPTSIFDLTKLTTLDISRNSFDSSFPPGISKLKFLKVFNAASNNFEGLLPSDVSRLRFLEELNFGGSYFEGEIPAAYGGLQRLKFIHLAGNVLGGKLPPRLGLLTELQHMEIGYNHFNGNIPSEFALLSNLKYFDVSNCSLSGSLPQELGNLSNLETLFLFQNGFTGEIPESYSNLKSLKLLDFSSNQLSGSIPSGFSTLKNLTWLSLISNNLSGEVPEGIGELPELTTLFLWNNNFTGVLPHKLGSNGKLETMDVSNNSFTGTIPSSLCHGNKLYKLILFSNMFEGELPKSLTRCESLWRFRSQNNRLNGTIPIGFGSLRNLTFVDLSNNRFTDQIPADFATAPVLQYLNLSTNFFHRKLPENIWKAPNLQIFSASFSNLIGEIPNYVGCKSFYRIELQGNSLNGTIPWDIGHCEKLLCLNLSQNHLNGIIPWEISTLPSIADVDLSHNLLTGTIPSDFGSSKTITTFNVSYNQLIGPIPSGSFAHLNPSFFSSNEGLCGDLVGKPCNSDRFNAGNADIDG

[2] = target: T2, ecdTDR S305A mutant (Arabidopsis thaliana, UniProt Q9FII5 30-642, S305A)
T2 construct: TDR/PXY of A. thaliana, extracellular domain, residues 30-642; also called alanine substitution mutation of TDR-S305; source: High Five insect cells (baculovirus), secreted, purified as the wild type (Ni-NTA, size-exclusion chromatography)
T2 sequence (looked up): T1 sequence (looked up) with A132F, S276A

[3] = target: T3, ecdTDR Y253 alanine mutant (Arabidopsis thaliana, UniProt Q9FII5 30-642, alanine substitution of Y253)
T3 construct: TDR/PXY of A. thaliana, extracellular domain, residues 30-642; The text says only 'mutational studies' of Y253; source: High Five insect cells (baculovirus), secreted, purified as the wild type (Ni-NTA, size-exclusion chromatography)
T3 sequence (looked up): T1 sequence (looked up) with A132F, Y224A

B1: Tracheary Element Differentiation Inhibitory Factor (TDIF) peptide (peptide)
peptide: HEV[Hyp]SG[Hyp]NPISN
notes: TDIF, the 12-residue CLE peptide processed from CLE41 and CLE44 of A. thaliana; printed as HEV(Hyp)SG(Hyp)NPISN; numbers count on: the 12-residue peptide; CLE44 encodes the same peptide; also called wild type TDIF; wtTDIF; source: synthetic peptide (peptide 2.0)
In the case of B1, the binding result [1] is reported as “binds”, the “fold lower binding than wild-type ecdTDR” value [2] is reported as 4.4 fold and the binding result [3] is reported as “binds”.
